Source: paper PMC4397081

Biological target: Type 2 (MM2) sCJD proteinase K-resistant PrP^Sc aggregates (human)
Test: sedimentation velocity in sucrose gradient (ultracentrifugation)

## Type 2 (MM2) sCJD proteinase K-resistant PrP^Sc aggregates (complex)
  stoichiometry N: > 600 monomers
